± gives the uncertainty stated by the source.
Assay: amyloid nucleation score (Sup35N fusion, yeast selection) (log enrichment); library NNK2; higher = more nucleation; inactive = no reads after selection
Method in brief: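 Random libraries were run with three technical output replicates. In each, psi-negative yeast expressing Sup35N fused to peptides of 20 random codons were induced 24 hours with 100 μM copper sulfate and grown 7 days at 30°C on medium lacking adenine and uracil, and input and output plasmid inserts were Illumina-sequenced. The nucleation score is the DiMSum log enrichment of output over input reads, centred on the mode score of non-aggregating sequences, and sequences under 100 input reads were excluded.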

In order of falling amyloid nucleation score:
1. ENYFCSYWFCFSWALG  6.362 ± 0.062
2. EYRLFCCWE  6.04 ± 0.072
3. FCMVGLCMCGRQEMCGSTDS  5.99 ± 0.062
4. FASFVSIGRVVLLYSPSCYQ  5.71 ± 0.059
5. EWVYFLCSFHPSIDFLNISD  5.62 ± 0.076
6. FCMNTQH  5.288 ± 0.042
7. EYYINFVNNTFCVDSLRSLD  5.068 ± 0.035
8. EVHLEVLTNCKKV  5.05 ± 0.051
9. ERVQMFQIRVQSAYVVFGVS  4.75 ± 0.077
10. EPDELPYLLKASLMSLGHGP  4.64 ± 0.073
11. ESQNECVGYNMLDCMKLSRG  4.052 ± 0.037
12. EYSPCPSCT  3.966 ± 0.037
13. EYSTFPRRSDRSEIHFSINL  3.47 ± 0.12
14. EYSMHTWCRYKEDFSRGASG  2.98 ± 0.096
15. EQIGQ  2.92 ± 0.089
16. EVELALGGSELGGVVSWLM  1.77 ± 0.27
17. FDALRIFVPVPYRRWSSR  1.52 ± 0.28
18. ETMNA  1.38 ± 0.16
19. FECKVVILKCRLGYIFGANN  1.26 ± 0.16
20. FDLNAREHYRASRGDTGTGH  1.16 ± 0.68
21. FDWMI  0.926 ± 0.28
22. EVMCDAKLAGCVTSRPWLSR  0.925 ± 0.34
23. EVRSALYAYEGYLRVFRSFR  0.819 ± 0.46
24. FFLLVCVDGKTRRVD  0.8 ± 0.15
25. EVLARR  0.611 ± 0.46
26. FCSFSMFRLAS  0.606 ± 0.8
27. ESFLDINGVLRLRRLYVQSQ  0.587 ± 0.56
28. EWCQKGSAEIRASRCQ  0.58 ± 0.18
29. ETRRSYV  0.563 ± 0.38
30. FAPRSKPLRSLFEGLLF  0.495 ± 0.57
31. FCELLIVAVLLQGDSLKPQS  0.485 ± 0.36
32. ESMGGEYQGGVFVG  0.448 ± 0.38
33. EVAEQH  0.426 ± 0.16
34. FCRSYCVLVYLWSPYVTGSK  0.349 ± 0.5
35. ESADQWAVTMVGRHFYLVLR  0.294 ± 1.1
36. ESTLRVMGRKAISSGLMCIA  0.269 ± 0.28
37. ESTWVCIFSRVLYGGYCGDQ  0.244 ± 0.33
38. FFLSNWAAF  0.234 ± 0.55
39. FFFVWESNPSIWDGTFTVEV  0.21 ± 0.46
40. ESSYVRIQ  0.13 ± 0.4
41. FANGRFMNPSHGLYSLPLKR  0.09 ± 0.51
42. ETHYPPQ  0.033 ± 0.32
43. EQRGLASCLTIHHSRWCYTK  0.025 ± 0.33
44. EVIANWLENGYYVSKTVFVD  -0.026 ± 0.29
45. FDPLTFFGHRYCMQDMQLSD  -0.027 ± 0.32
46. FEYIVVESVCRSWWNLVS  -0.051 ± 0.55
47. ESSVITGLWHV  -0.081 ± 0.8
48. EYVVSLHVFRLHIKLKIFRV  -0.09 ± 0.65
49. EVNRAPNVSIVYRRNSGTAD  -0.154 ± 0.4
50. EPGRRSYSWFCITRVFVMR  -0.171 ± 1
51. EWCQFIR  -0.199 ± 0.19
52. EVVLSAILQHYMSFVSGDDL  -0.201 ± 0.41
53. FFISLDRVMLTGLKLTCPLG  -0.266 ± 1.1
54. FFLSRFLV  -0.27 ± 0.79
55. FAKIRGLITFVLQMWVTVYV  -0.278 ± 0.45
56. FFIWKVLDWHLNSRSYRWFG  -0.325 ± 0.76
57. FCYIDGLGYSRFNMHAEPSG  -0.326 ± 0.48
58. FEGLWQTFTMSLQGNLKYIF  -0.4 ± 0.74
59. ETLPLNIILYACGEPHWFLL  -0.407 ± 0.29
60. FAEFKVQIYLSWLYPEIPVN  -0.455 ± 1.1
61. EPLVKYPEYSFPSMVCMPSI  -0.478 ± 0.64
62. ERSNSRVVDL  -0.539 ± 0.44
63. EVSQGLDSILYLWYDEWDSA  -0.608 ± 0.31
64. FCYCLIKGCMLEGLSNYSCD  -0.613 ± 1.1
65. EVMEFSNDFSRIFFAFKGFV  -0.665 ± 0.78
66. FCHCFRGYARDHHRMTQLGN  -0.674 ± 0.76
67. FASSEVYTGVSYIIHVSVYS  -0.714 ± 1
68. FCKVGFALLGVNQDVLYEMS  -0.714 ± 1
69. FCDVQDFAVLSGVELLNLSY  -0.751 ± 0.39
70. ERFRIGTCSIRCSYILGLRR  -0.898 ± 0.54
71. FDSEQLIRYD  -0.909 ± 1.1
72. FFKGLSKSIQVGL  -1.06 ± 0.56
73. FAIHLKLMYVGTDFSNVRDI  -1.15 ± 0.76
74. FEYYIDPRK  -1.27 ± 0.61
75. FDVSFILSL  -1.34 ± 1
76. FFSDVSLVQYHLTLRFLMAY  -1.69 ± 0.62
77. FEGQA  -1.8 ± 0.54

For ETVLFYSV, the amyloid nucleation score was “inactive”.
In the case of EYMAITSFQKLFPHWFLSTE, the amyloid nucleation score is reported as “inactive”.
For FCFFSLVRLYKGYRSSINLA, the amyloid nucleation score was “inactive”.
With FDLNVVDIFTLCMRKRYTME the amyloid nucleation score was “inactive”.
In the case of FDTASTVDSVRIRKTKSSQ, the amyloid nucleation score is reported as “inactive”.
With FECKCKVYTPAWGCHQYLIL the amyloid nucleation score was “inactive”.
With FEFYLIARIFCPKGLLCESS the amyloid nucleation score was “inactive”.
For FEWSTGCG, the amyloid nucleation score was “inactive”.
In the case of FFLNVFDIMRILLYN, the amyloid nucleation score is reported as “inactive”.
